Test results as given in patent US20240228562A1, “NOVEL LIPOCALIN MUTEINS SPECIFIC FOR CONNECTIVE TISSUE GROWTH FACTOR (CTGF)” (PIERIS PHARMACEUTICALS GMBH, priority 2021, published 2024).

T1: Murine CTGF (Mus musculus, UniProt P29268)
T1 construct: purchased Abbexa
T1 sequence (P29268 26-348): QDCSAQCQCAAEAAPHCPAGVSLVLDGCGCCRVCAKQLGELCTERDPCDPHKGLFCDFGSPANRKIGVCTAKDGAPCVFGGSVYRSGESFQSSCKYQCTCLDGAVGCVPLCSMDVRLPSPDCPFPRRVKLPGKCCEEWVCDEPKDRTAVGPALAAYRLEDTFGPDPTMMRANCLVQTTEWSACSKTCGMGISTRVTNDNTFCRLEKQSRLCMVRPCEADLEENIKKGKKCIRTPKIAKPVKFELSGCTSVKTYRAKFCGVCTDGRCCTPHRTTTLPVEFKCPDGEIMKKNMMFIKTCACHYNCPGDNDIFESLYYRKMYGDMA

T2: Rat CTGF (Rattus norvegicus, UniProt Q9R1E9)
T2 construct: purchased R&D Systems
T2 sequence (Q9R1E9 25-347): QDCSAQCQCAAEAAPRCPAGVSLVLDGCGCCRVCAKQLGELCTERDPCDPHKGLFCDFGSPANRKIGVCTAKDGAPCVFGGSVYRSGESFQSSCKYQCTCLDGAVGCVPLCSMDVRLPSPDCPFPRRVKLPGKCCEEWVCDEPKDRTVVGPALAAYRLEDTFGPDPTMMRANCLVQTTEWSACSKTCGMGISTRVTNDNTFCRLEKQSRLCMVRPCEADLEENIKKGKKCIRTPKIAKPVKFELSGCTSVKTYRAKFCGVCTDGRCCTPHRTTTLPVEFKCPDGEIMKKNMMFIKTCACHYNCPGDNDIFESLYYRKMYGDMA


Assays:
[1] = Thermal stability assessment by nanoDSC; type: physicochemical; conditions: 1 mg/mL in PBS, scan 25-100° C. at 1° C./min; for TM: major transition
Outline: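 CTGF-specific lipocalin muteins at 1 mg/mL in PBS scanned from 25 to 100° C at 1° C/min by capillary nano-DSC. Where several transitions occur, the Tm of the major unfolding event is reported, along with onset temperature. Some muteins were expressed in E. coli, others in CHO cells.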

human CTGF [2] = target: T3, human CTGF (Homo sapiens, UniProt P29279); assay: SPR binding kinetics and affinity, human CTGF; conditions: 25° C., 1:1 binding model
T3 construct: purchased Creative Biomart
T3 sequence (P29279 with tags, fused parts or gaps H83D): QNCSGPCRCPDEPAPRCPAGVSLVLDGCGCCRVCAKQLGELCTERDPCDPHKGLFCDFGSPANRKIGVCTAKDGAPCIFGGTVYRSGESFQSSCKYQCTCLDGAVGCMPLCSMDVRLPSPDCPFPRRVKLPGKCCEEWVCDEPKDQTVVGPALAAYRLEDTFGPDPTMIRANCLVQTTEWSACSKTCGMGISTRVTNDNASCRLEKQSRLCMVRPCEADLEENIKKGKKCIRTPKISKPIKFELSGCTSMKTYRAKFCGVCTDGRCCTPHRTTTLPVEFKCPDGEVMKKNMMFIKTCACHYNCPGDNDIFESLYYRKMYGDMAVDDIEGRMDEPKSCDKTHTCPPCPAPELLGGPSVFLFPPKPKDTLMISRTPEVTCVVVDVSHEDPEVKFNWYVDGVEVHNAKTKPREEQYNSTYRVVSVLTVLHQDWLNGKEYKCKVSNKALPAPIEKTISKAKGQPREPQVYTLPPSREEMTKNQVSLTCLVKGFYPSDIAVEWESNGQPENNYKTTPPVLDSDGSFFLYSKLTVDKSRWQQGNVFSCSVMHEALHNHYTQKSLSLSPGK
Experimental: (§1) Surface plasmon resonance (SPR) was used to measure binding kinetics and affinity of the representative lipocalin muteins disclosed herein.
(§2) The binding of exemplary lipocalin muteins to human (Creative Biomart), cynomolgus, rat (R&D Systems) and mouse CTGF (Abbexa) was determined by SPR using a Biacore instrument (Cytiva, formerly GE Healthcare). Some targets were fused to a human IgG1 Fc tag, and captured via the anti-human IgG antibody kit, others were directly immobilized.
(§3) For some measurements, human CTGF with a human IgG1 Fc Tag or rat or murine CTGF without a tag were directly immobilized to a CM5 Chip. The carboxyl groups on the chip were activated using 1-ethyl-3-(3-dimethylaminopropyl)-carbodiimide (EDC) and N-hydroxysuccinimide (NHS). Subsequently, the targets at a concentration of 3-5 μg/mL in 10 mM sodium acetate (pH) 4.5 were applied at a flow rate of 10 μL/min until an immobilization level of 300-1100 resonance units was achieved. Residual non-reacted NHS-esters were blocked by passing a solution of 1 M ethanolamine across the surface. The reference channel was activated/deactivated. For the capture setting, targets with an IgG Fc Tag at 0.25-2.5 μg/mL in HBS-EP+ buffer were captured by the anti-human IgG-Fc antibody at the chip surface for 180 s at a flow rate of 10 μL/min.
(§4) The binding assay was carried out with a contact time of 180 s, a dissociation time of 900-3600 s and a flow rate of 30 μL/min. All measurements were performed at 25° C. […] For the directly immobilized targets, the same regeneration conditions were used. Prior to the protein measurements, three startup cycles were performed for conditioning purposes. Data were evaluated with Biacore Evaluation software. Double referencing was used and the 1:1 binding model was used to fit the raw data.

human CTGF [3] = target: T4, human CTGF (Homo sapiens, UniProt P29279, H83D); assay: SPR binding kinetics and affinity, human CTGF; conditions: 25° C., 1:1 binding model
T4 construct: purchased Creative Biomart
T4 sequence (P29279 with tags, fused parts or gaps H83D): as above
Experimental: as §1, §2, §3, §4

Murine CTGF = target: T1, Murine CTGF; assay: SPR binding kinetics and affinity, murine CTGF; parameters: key to Murine CTGF kon / Murine CTGF koff / Murine CTGF KD: B binding without determination of kinetics constants; conditions: 25° C., 1:1 binding model
Experimental: as §1, §2, §3, §4
(§5) The values determined for kon, koff and the resulting equilibrium dissociation constant (KD) for exemplary lipocalin muteins are summarized in Table 4.

Rat CTGF = target: T2, Rat CTGF; assay: SPR binding kinetics and affinity, rat CTGF; parameters: key to Rat CTGF kon / Rat CTGF koff / Rat CTGF KD: B binding without determination of kinetics constants; conditions: 25° C., 1:1 binding model
Experimental: as §1, §2, §3, §4, §5

cynomolgus CTGF = assay: SPR binding kinetics and affinity, cynomolgus CTGF; conditions: 25° C., 1:1 binding model
Chain of cynomolgus CTGF (as listed by the source): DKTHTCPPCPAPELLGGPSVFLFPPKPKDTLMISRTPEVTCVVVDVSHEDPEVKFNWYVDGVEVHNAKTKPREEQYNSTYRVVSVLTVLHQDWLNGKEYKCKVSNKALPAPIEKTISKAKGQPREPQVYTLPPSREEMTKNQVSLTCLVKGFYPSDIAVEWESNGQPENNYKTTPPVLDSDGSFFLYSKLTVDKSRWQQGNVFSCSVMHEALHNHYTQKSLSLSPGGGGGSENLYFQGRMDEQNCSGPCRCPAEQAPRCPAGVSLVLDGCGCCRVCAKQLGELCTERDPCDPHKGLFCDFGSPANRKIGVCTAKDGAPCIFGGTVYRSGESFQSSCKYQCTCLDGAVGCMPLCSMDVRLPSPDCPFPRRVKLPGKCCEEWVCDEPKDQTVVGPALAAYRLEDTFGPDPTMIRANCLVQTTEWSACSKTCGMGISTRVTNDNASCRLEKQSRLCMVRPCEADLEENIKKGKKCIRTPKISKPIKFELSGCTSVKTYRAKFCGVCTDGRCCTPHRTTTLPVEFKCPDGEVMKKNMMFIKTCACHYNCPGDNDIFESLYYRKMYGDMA
Experimental: as §1, §2, §3, §4, §5

Row | Molecule | human CTGF koff (human CTGF [2]) [s⁻¹] | human CTGF kon (human CTGF [3]) [M⁻¹ s⁻¹] | Murine CTGF KD (Murine CTGF) | Murine CTGF koff (Murine CTGF) | Murine CTGF kon (Murine CTGF) | Rat CTGF KD (Rat CTGF) | Rat CTGF koff (Rat CTGF) | Rat CTGF kon (Rat CTGF) | cynomolgus CTGF koff (cynomolgus CTGF) [s⁻¹] | cynomolgus CTGF kon (cynomolgus CTGF) [M⁻¹ s⁻¹] | ONSET MELTING [1] [°C] | TM [1] [°C]
1 | SEQ ID NO: 6: optimized CTGF-binding hNGAL lipocalin mutein (protein, lipocalin mutein) QDSTSDLIPAPPLSKVPLQQNFQDNQFQGKWYVVGRAGNNQLREDKSPPKMWATIYELKEDKSYDVTHVHFSTKKCRYIIDTFVPGSQPGEFTAGAIKSGPGLTSPLVRVVSTNYNQHAMVFFKWVTQNREWFTITLYGRTKELTSELKENFIRFSKSLGLPENHIVFPVPIDQCIDG | 0.000149 | 290000 | B | B | B | B | B | B |  |  | 48 | 66
2 | SEQ ID NO: 5: optimized CTGF-binding hNGAL lipocalin mutein (protein, lipocalin mutein) QDSTSDLIPAPPLSKVPLQQNFQDNQFQGKWYVVGKAGNALREDKEPPKMWATIYELKEDKSYDVTHVHFLTKKCKYLIDTFVPGSQPGEFTIGAIKSGPGLTSPLVRVVSTNYNQHAMVFFKWVSQNREWFTITLYGRTKELTSELKENFIRFSKSLGLPENHIVFPVPIDQCIDG | 6.65e-05 | 211000 | B | B | B |  | 0.000362 s⁻¹ | 294000 M⁻¹ s⁻¹ |  |  | 52 | 66

Continued, in another order:

Row | human CTGF koff (human CTGF [2]) [s⁻¹] | human CTGF kon (human CTGF [3]) [M⁻¹ s⁻¹] | Murine CTGF KD (Murine CTGF) | Murine CTGF koff (Murine CTGF) | Murine CTGF kon (Murine CTGF) | Rat CTGF KD (Rat CTGF) | Rat CTGF koff (Rat CTGF) | Rat CTGF kon (Rat CTGF) | cynomolgus CTGF koff (cynomolgus CTGF) [s⁻¹] | cynomolgus CTGF kon (cynomolgus CTGF) [M⁻¹ s⁻¹] | Molecule | ONSET MELTING [1] [°C] | TM [1] [°C]
3 | 4.85e-05 | 195000 |  | 0.000444 s⁻¹ | 281000 M⁻¹ s⁻¹ |  | 0.000423 s⁻¹ | 223000 M⁻¹ s⁻¹ | 7.31e-05 | 162000 | SEQ ID NO: 31: optimized CTGF-binding hNGAL lipocalin mutein (protein, lipocalin mutein) QDSTSDLIPAPPLSKVPLQQNFQDNQFQGKWYVVGWAGNVKLREDKQPQKMSATIYELKEDKSYDVTEVVFEQKKCHYIIKTFVPGSQPGEFTAGDIKSPPGYTSSLVRVVSTNYNQHAMVFFKKVSQNREFFWITLYGRTKELTSELKENFIRFSKSLGLPENHIVFPVPIDQCIDG | 59 | 75
4 | 6.95e-05 | 165000 |  | 0.00052 s⁻¹ | 310000 M⁻¹ s⁻¹ |  |  |  | 9.77e-05 | 141000 | SEQ ID NO: 36: optimized CTGF-binding hNGAL lipocalin mutein (protein, lipocalin mutein) QDSTSDLIPAPPLSKVPLQQNFQDNQFQGKWYVVGWAGNVKLREDKQPAKMSATIYELKEDKSYDVTEVVFEQKKCHYIIKTFVPGSQPGEFTAGDIKSPPGYTSSLVRVVSTNYNQHAMVFFKKVGQNREFFWITLYGRTKELTSELKENFIRFSKSLGLPENHIVFPVPIDQCIDG | 58 | 73
5 | 0.000169 | 150000 |  | 0.00286 s⁻¹ | 240000 M⁻¹ s⁻¹ |  |  |  | 0.000238 | 139000 | SEQ ID NO: 34: optimized CTGF-binding hNGAL lipocalin mutein (protein, lipocalin mutein) QDSTSDLIPAPPLSKVPLQQNFQDNQFQGKWYVVGWAGNVILREDKQPFKMSATIYELKEDKSYDVTEVVFEQKKCHYIIKTFVPGSQPGEFTLGDIKSPPGETSTLVRVVSTNYNQHAMVFFKKVSQNREFFWITLYGRTKELTSELKENFIRFSKSLGLPENHIVFPVPIDQCIDG | 67 | 82
